Starred links: 1 amine or outer side, 2 acyl side, 3 side chain; linkers in the order of their positions; H or OH if unused. Positions of bridges follow the written chain, without caps; N, C: chain ends. Non-standard residues stand in square brackets, D forms with d. No end group written: not given here. Phe(3R-OH) = O=C([C@@H](N[*:1])[C@H](O[*:3])c1ccccc1)[*:2]; tBuAla = CC(C)(C)C[C@H](N)C(=O)O; Cha = N[C@@H](CC1CCCCC1)C(=O)O; dCha = N[C@H](CC1CCCCC1)C(=O)O; hLeu = CC(C)CC[C@H](N)C(=O)O; 4Amb = NCc1ccc(C(=O)O)cc1; Nle = CCCC[C@H](N)C(=O)O; Aib = CC(C)(N)C(=O)O
B1: 4-Aminomethylbenzoyl-[Pro26, Ile28,31]-PYY(25-36) (peptide)
peptide: [4Amb]RPYINLITRQRY-NH2
modifications: N-terminus assumed
SMILES: CC[C@H](C)[C@H](NC(=O)[C@H](Cc1ccc(O)cc1)NC(=O)[C@@H]1CCCN1C(=O)[C@H](CCCNC(=N)N)NC(=O)c1ccc(CN)cc1)C(=O)N[C@@H](CC(N)=O)C(=O)N[C@@H](CC(C)C)C(=O)N[C@H](C(=O)N[C@H](C(=O)N[C@@H](CCCNC(=N)N)C(=O)N[C@@H](CCC(N)=O)C(=O)N[C@@H](CCCNC(=N)N)C(=O)N[C@@H](Cc1ccc(O)cc1)C(N)=O)[C@@H](C)O)[C@@H](C)CC
notes: also called compound No. 19
B2: Ac-[D-Pro24, Cha27,28, Aib31, Leu(Me)36]-PYY(23-36) (peptide)
peptide: Ac-S[dP]RH[Cha][Cha]NL[Aib]TRQR[tBuAla]-NH2
SMILES: CC(=O)N[C@@H](CO)C(=O)N1CCC[C@@H]1C(=O)N[C@@H](CCCNC(=N)N)C(=O)N[C@@H](Cc1c[nH]cn1)C(=O)N[C@@H](CC1CCCCC1)C(=O)N[C@@H](CC1CCCCC1)C(=O)N[C@@H](CC(N)=O)C(=O)N[C@@H](CC(C)C)C(=O)NC(C)(C)C(=O)N[C@H](C(=O)N[C@@H](CCCNC(=N)N)C(=O)N[C@@H](CCC(N)=O)C(=O)N[C@@H](CCCNC(=N)N)C(=O)N[C@@H](CC(C)(C)C)C(N)=O)[C@@H](C)O
notes: also called compound No. 198
B3: Ac-[D-Pro24, Cha27,28, Aib31, homoLeu36]-PYY(23-36) (peptide)
peptide: Ac-S[dP]RH[Cha][Cha]NL[Aib]TRQR[hLeu]-NH2
SMILES: CC(=O)N[C@@H](CO)C(=O)N1CCC[C@@H]1C(=O)N[C@@H](CCCNC(=N)N)C(=O)N[C@@H](Cc1c[nH]cn1)C(=O)N[C@@H](CC1CCCCC1)C(=O)N[C@@H](CC1CCCCC1)C(=O)N[C@@H](CC(N)=O)C(=O)N[C@@H](CC(C)C)C(=O)NC(C)(C)C(=O)N[C@H](C(=O)N[C@@H](CCCNC(=N)N)C(=O)N[C@@H](CCC(N)=O)C(=O)N[C@@H](CCCNC(=N)N)C(=O)N[C@@H](CCC(C)C)C(N)=O)[C@@H](C)O
notes: also called compound No. 199
B4: Ac-[D-Pro24, Cha27,28, Aib31, threo-PhSer36]-PYY(23-36) (peptide)
peptide: Ac-S[dP]RH[Cha][Cha]NL[Aib]TRQR[Phe(3R-OH)]-NH2
SMILES: CC(=O)N[C@@H](CO)C(=O)N1CCC[C@@H]1C(=O)N[C@@H](CCCNC(=N)N)C(=O)N[C@@H](Cc1c[nH]cn1)C(=O)N[C@@H](CC1CCCCC1)C(=O)N[C@@H](CC1CCCCC1)C(=O)N[C@@H](CC(N)=O)C(=O)N[C@@H](CC(C)C)C(=O)NC(C)(C)C(=O)N[C@H](C(=O)N[C@@H](CCCNC(=N)N)C(=O)N[C@@H](CCC(N)=O)C(=O)N[C@@H](CCCNC(=N)N)C(=O)N[C@H](C(N)=O)[C@H](O)c1ccccc1)[C@@H](C)O
notes: also called compound No. 200
B5: 4-Aminomethylbenzoyl-[Ala26, Nle28, Ile31]-PYY(25-36) (peptide)
peptide: [4Amb]RAY[Nle]NLITRQRY-NH2
modifications: N-terminus assumed
SMILES: CCCC[C@H](NC(=O)[C@H](Cc1ccc(O)cc1)NC(=O)[C@H](C)NC(=O)[C@H](CCCNC(=N)N)NC(=O)c1ccc(CN)cc1)C(=O)N[C@@H](CC(N)=O)C(=O)N[C@@H](CC(C)C)C(=O)N[C@H](C(=O)N[C@H](C(=O)N[C@@H](CCCNC(=N)N)C(=O)N[C@@H](CCC(N)=O)C(=O)N[C@@H](CCCNC(=N)N)C(=O)N[C@@H](Cc1ccc(O)cc1)C(N)=O)[C@@H](C)O)[C@@H](C)CC
notes: also called compound No. 21
B6: [D-Leu24, Ala26, Ile28,31]-PYY(24-36) (peptide)
peptide: [dL]RAYINLITRQRY-NH2
modifications: N-terminus assumed
SMILES: CC[C@H](C)[C@H](NC(=O)[C@H](Cc1ccc(O)cc1)NC(=O)[C@H](C)NC(=O)[C@H](CCCNC(=N)N)NC(=O)[C@H](N)CC(C)C)C(=O)N[C@@H](CC(N)=O)C(=O)N[C@@H](CC(C)C)C(=O)N[C@H](C(=O)N[C@H](C(=O)N[C@@H](CCCNC(=N)N)C(=O)N[C@@H](CCC(N)=O)C(=O)N[C@@H](CCCNC(=N)N)C(=O)N[C@@H](Cc1ccc(O)cc1)C(N)=O)[C@@H](C)O)[C@@H](C)CC
notes: also called compound No. 24
B7: cyclo(27-31)-4-Aminomethylbenzoyl-[Glu27, Ile28, Lys31]-PYY(25-36) (peptide)
peptide: [4Amb]RHEINLKTRQRY-NH2
modifications: lactam 4-8; N-terminus assumed
SMILES: CC[C@H](C)[C@@H]1NC(=O)[C@@H](NC(=O)[C@H](Cc2c[nH]cn2)NC(=O)[C@H](CCCNC(=N)N)NC(=O)c2ccc(CN)cc2)CCC(=O)NCCCC[C@@H](C(=O)N[C@H](C(=O)N[C@@H](CCCNC(=N)N)C(=O)N[C@@H](CCC(N)=O)C(=O)N[C@@H](CCCNC(=N)N)C(=O)N[C@@H](Cc2ccc(O)cc2)C(N)=O)[C@@H](C)O)NC(=O)[C@H](CC(C)C)NC(=O)[C@H](CC(N)=O)NC1=O
notes: also called compound No. 25
B8: cyclo(28-32)-4-Aminomethylbenzoyl-[Lys28, Ile31, Glu32]-PYY(25-36) (peptide)
peptide: [4Amb]RHYKNLIERQRY-NH2
modifications: lactam 5-9; N-terminus assumed
SMILES: CC[C@H](C)[C@@H]1NC(=O)[C@H](CC(C)C)NC(=O)[C@H](CC(N)=O)NC(=O)[C@@H](NC(=O)[C@H](Cc2ccc(O)cc2)NC(=O)[C@H](Cc2c[nH]cn2)NC(=O)[C@H](CCCNC(=N)N)NC(=O)c2ccc(CN)cc2)CCCCNC(=O)CC[C@@H](C(=O)N[C@@H](CCCNC(=N)N)C(=O)N[C@@H](CCC(N)=O)C(=O)N[C@@H](CCCNC(=N)N)C(=O)N[C@@H](Cc2ccc(O)cc2)C(N)=O)NC1=O
notes: also called compound No. 26
B9: [D-Arg23, Ala26, Ile28,31]-PYY(23-36) (peptide)
peptide: [dR]LRAYINLITRQRY-NH2
modifications: N-terminus assumed
SMILES: CC[C@H](C)[C@H](NC(=O)[C@H](Cc1ccc(O)cc1)NC(=O)[C@H](C)NC(=O)[C@H](CCCNC(=N)N)NC(=O)[C@H](CC(C)C)NC(=O)[C@H](N)CCCNC(=N)N)C(=O)N[C@@H](CC(N)=O)C(=O)N[C@@H](CC(C)C)C(=O)N[C@H](C(=O)N[C@H](C(=O)N[C@@H](CCCNC(=N)N)C(=O)N[C@@H](CCC(N)=O)C(=O)N[C@@H](CCCNC(=N)N)C(=O)N[C@@H](Cc1ccc(O)cc1)C(N)=O)[C@@H](C)O)[C@@H](C)CC
notes: also called compound No. 27
B10: Ac-[D-Phe24, Ala26, Ile28,31]-PYY(24-36) (peptide)
peptide: Ac-[dF]RAYINLITRQRY-NH2
SMILES: CC[C@H](C)[C@H](NC(=O)[C@H](Cc1ccc(O)cc1)NC(=O)[C@H](C)NC(=O)[C@H](CCCNC(=N)N)NC(=O)[C@@H](Cc1ccccc1)NC(C)=O)C(=O)N[C@@H](CC(N)=O)C(=O)N[C@@H](CC(C)C)C(=O)N[C@H](C(=O)N[C@H](C(=O)N[C@@H](CCCNC(=N)N)C(=O)N[C@@H](CCC(N)=O)C(=O)N[C@@H](CCCNC(=N)N)C(=O)N[C@@H](Cc1ccc(O)cc1)C(N)=O)[C@@H](C)O)[C@@H](C)CC
notes: also called compound No. 35
B11: Ac-[Cha24, Ala26, Ile28,31]-PYY(24-36) (peptide)
peptide: Ac-[Cha]RAYINLITRQRY-NH2
SMILES: CC[C@H](C)[C@H](NC(=O)[C@H](Cc1ccc(O)cc1)NC(=O)[C@H](C)NC(=O)[C@H](CCCNC(=N)N)NC(=O)[C@H](CC1CCCCC1)NC(C)=O)C(=O)N[C@@H](CC(N)=O)C(=O)N[C@@H](CC(C)C)C(=O)N[C@H](C(=O)N[C@H](C(=O)N[C@@H](CCCNC(=N)N)C(=O)N[C@@H](CCC(N)=O)C(=O)N[C@@H](CCCNC(=N)N)C(=O)N[C@@H](Cc1ccc(O)cc1)C(N)=O)[C@@H](C)O)[C@@H](C)CC
notes: also called compound No. 36
B12: Ac-[D-Cha24, Ala26, Ile28,31]-PYY(24-36) (peptide)
peptide: Ac-[dCha]RAYINLITRQRY-NH2
SMILES: CC[C@H](C)[C@H](NC(=O)[C@H](Cc1ccc(O)cc1)NC(=O)[C@H](C)NC(=O)[C@H](CCCNC(=N)N)NC(=O)[C@@H](CC1CCCCC1)NC(C)=O)C(=O)N[C@@H](CC(N)=O)C(=O)N[C@@H](CC(C)C)C(=O)N[C@H](C(=O)N[C@H](C(=O)N[C@@H](CCCNC(=N)N)C(=O)N[C@@H](CCC(N)=O)C(=O)N[C@@H](CCCNC(=N)N)C(=O)N[C@@H](Cc1ccc(O)cc1)C(N)=O)[C@@H](C)O)[C@@H](C)CC
notes: also called compound No. 37

target: T1, human Y2 receptor (human, UniProt P49146 1-381); test: RBA: [125I]-PYY displacement, hY2R/CHO membranes
T1 construct: whole, on cells; used as membrane fraction of hY2R/CHO cells; also called human NPY2R; hY2R
T1 sequence (looked up): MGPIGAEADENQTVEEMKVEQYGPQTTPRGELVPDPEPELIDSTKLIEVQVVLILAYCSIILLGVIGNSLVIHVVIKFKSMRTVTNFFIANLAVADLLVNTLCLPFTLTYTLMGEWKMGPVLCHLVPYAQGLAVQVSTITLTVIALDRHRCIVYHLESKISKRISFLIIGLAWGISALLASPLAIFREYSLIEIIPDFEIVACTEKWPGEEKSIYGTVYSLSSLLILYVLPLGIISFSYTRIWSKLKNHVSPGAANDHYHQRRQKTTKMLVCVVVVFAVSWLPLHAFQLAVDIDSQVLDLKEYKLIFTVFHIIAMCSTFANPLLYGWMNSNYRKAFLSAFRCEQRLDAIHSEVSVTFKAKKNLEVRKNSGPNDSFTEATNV
In short: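 Bound radioligand was collected by filtration on PEI-treated GF/C filters, washed with Tris/MgCl₂/NaCl/CHAPS buffer pH 7.4, and counted by scintillation; IC₅₀ values were calculated.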

Row | Binder | IC50 Ratio (vs PYY(3-36)) [ratio]
1 | B1 | 45
2 | B2 | 12
3 | B3 | 20
4 | B4 | 16
5 | B5 | 4.1
6 | Ac-FRAYINLITRQRY-NH2 (also called compound No. 34) [Ac-[Phe24, Ala26, Ile28,31]-PYY(24-36)] | 25
7 | Ac-PRAYINLITRQRY-NH2 (also called compound No. 38) [Ac-[Pro24, Ala26, Ile28,31]-PYY(24-36)] | 52
8 | B6 | 14
9 | B7 | 30
10 | B8 | 18
11 | B9 | 4.5
12 | {4‑(((imino(octylamino)methyl)amino)methyl)benzoyl}-RAYINLITRQRY-NH2 (also called compound No. 28) [4-({[imino(octylamino)methyl]amino}methyl)benzoyl-[Ala26, Ile28,31]-PYY(25-36)] | 14
13 | B10 | 14
14 | B11 | 17
15 | B12 | 7.6
16 | RYYASLRAYINLITRQRY-NH2 (also called compound No. 2) [[Ala26, Ile28,31]-PYY(19-36)] | 4.9

target: T1, human Y2 receptor; test: cell-based or functional assay

Row | Binder | GBA EC50 Ratio (vs PYY(3-36)), [35S]GTPγS [ratio]
17 | B1 | 25
18 | B2 | 7.1
19 | B3 | 8.5
20 | B4 | 10
21 | B5 | 3.6
22 | Ac-FRAYINLITRQRY-NH2 (also called compound No. 34) [Ac-[Phe24, Ala26, Ile28,31]-PYY(24-36)] | 14
23 | Ac-PRAYINLITRQRY-NH2 (also called compound No. 38) [Ac-[Pro24, Ala26, Ile28,31]-PYY(24-36)] | 26
24 | B6 | 9.4
25 | B7 | 16
26 | B8 | 11
27 | B9 | 3.6
28 | {4‑(((imino(octylamino)methyl)amino)methyl)benzoyl}-RAYINLITRQRY-NH2 (also called compound No. 28) [4-({[imino(octylamino)methyl]amino}methyl)benzoyl-[Ala26, Ile28,31]-PYY(25-36)] | 12
29 | B10 | 8.7
30 | B11 | 13
31 | B12 | 4.6
32 | RYYASLRAYINLITRQRY-NH2 (also called compound No. 2) [[Ala26, Ile28,31]-PYY(19-36)] | 2.1

— patent US20120172293A1 (Takeda / Millennium, published 2012)
